Patent US20260242721A1, “A SYNTHETIC CELLULAR ADVANCED SIGNAL ADAPTER (SCASA) SYSTEM” (Danmarks Tekniske Universitet, priority 2023, published 2026)

Columns and labels:
[1] = biological target: T1, Saccharomyces cerevisiae α-factor pheromone receptor (Ste2) (Saccharomyces cerevisiae) (UniProt D6VTK4); test: cell-based or functional assay
T1 sequence: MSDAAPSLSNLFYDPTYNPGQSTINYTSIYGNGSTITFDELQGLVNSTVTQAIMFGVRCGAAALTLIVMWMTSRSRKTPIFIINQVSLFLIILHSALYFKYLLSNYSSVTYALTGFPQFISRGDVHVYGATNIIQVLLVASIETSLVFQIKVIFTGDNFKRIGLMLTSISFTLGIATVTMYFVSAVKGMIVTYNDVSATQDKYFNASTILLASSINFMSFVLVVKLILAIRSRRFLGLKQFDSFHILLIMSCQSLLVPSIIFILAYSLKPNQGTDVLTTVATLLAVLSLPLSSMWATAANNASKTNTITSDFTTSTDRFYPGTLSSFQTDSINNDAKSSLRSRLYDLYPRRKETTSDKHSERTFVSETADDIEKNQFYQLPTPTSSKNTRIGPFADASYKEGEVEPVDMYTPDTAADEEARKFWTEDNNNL

[2] = system: pheromone response pathway (PRP)
Description: To investigate the dose-response features of the selected promoters PMFA2, PFUS1, PAGA2, PFIG.1, PMFA1, PYCL076W, PHPF1, PIME4, PCSS1, PTDH3, PPGK1 and P6XLexOLEU2 upon GPCR stimulation the strains were pre-grown in SC (24 hrs.), whereafter, for each replicate, cells were transferred to 200 μL volumes comprising a 10-fold dilution series of α-factor (0-100 μM) (GenScript) dissolved in SC+1% DMSO, and stimulated for 5 hrs. (30° C., 250 r.p.m.). Flow cytometric measurement was done to quantify yEGFP levels (B525/45-A) and PRP-regulated morphological changes, denoted shmooing (SSC-A) using a NovoCyte Quanteon flow cytometer (Agilent). Data represents means of median fluorescence intensity (mMFI) for three biological replicates and standard deviations hereof. Two-way ANOVA with Tukey's multiple comparisons test was conducted for all conditions.

[3] = system: CD19; test: Yeast surface display (YSD) of CD19, antibody staining and flow cytometry; assay type: cell-based, Saccharomyces cerevisiae; details: for fold upregulation of CD19 display relative to unstimulated condition: α-factor 0-100 μM, 20 hrs, promoter driving CD19 in DIX41 background
Description: To investigate the different variants of CD19 modules, yeast cells were grown and, in some cases, stimulated to present CD19 differentially, whereafter they were stained with antibodies and assessed by flow cytometry. Flow cytometric measurement was done using a NovoCyte Quanteon flow cytometer (Agilent) to quantify CD19 by staining with mouse anti-CD19 (FMC63) (Absolute Antibody; Ab00613) and goat anti-mouse-AF647 (polyclonal) (Thermo Fisher; A-21236), detected in R667/30-H, as well as rabbit anti-HA (RM305) (Thermo Fisher; MA5-27915) and goat anti-rabbit-AF488 (polyclonal) (Thermo Fisher; A-11008), detected in B525/45-H (see FIG. 7), and to measure PRP-regulated morphological changes (SSC-H). […] Data represents means of median fluorescence intensity (mMFI) for three biological replicates and standard deviations hereof. Two-way ANOVA with multiple comparisons tests was conducted for all conditions. Histograms are representative replicates. No SSC-normalization was used in the evaluation of the effector module, unlike in Example 1, as it is the absolute response of all effects combined that constitute the total output that CAR T cells interpret and react to.
For conventional YSD using strain EBY100 and pCT-plasmid-based expression (Chao et al. 2006, Isolating and engineering human antibodies using yeast surface display. Nature Protocols, 1(2), 755-768), strains were pre-grown in SC −trp, then transferred to 5 mL SC −trp +2% Gal for induction of YSD or +2% Gluc as a negative control (24 hrs., 30° C., 250 r.p.m.). NALM6 was cultured in RPMI 1640 medium (ATCC modification) (Thermo Fisher) with 10% fetal bovine serum and 1% pen-strep (RPMI+10% FBS) at 37° C. with 5% CO2. For the investigation of PGAL1-titratability of DIX41 with pMAD58 and DIX74, strains were pre-grown in SC −ura and SC, respectively, then transferred to SC −ura and SC, respectively, with varying concentrations of galactose (0.0002%-2% Gal), using raffinose as compensating carbon source, and YSD was induced for 24 hrs. (30° C., 250 r.p.m.). Strains were similarly grown in 2% Gluc as negative controls. For the investigation of the strain library with constitutive and dynamically regulated expression of CD19 (Background strain/No YSD, PPGK1-Empty, PMFA2-CD19, PFUS1-CD19, PFIG.1-CD19, PMFA1-CD19, PHPF1-CD19, PTDH3-CD19, PPGK1-CD19) the strains were pre-grown in SC, whereafter, for each replicate, 50.000 cells were transferred to 300 μL volumes comprising a 10-fold dilution series of α-factor (0-100 μM) (GenScript) dissolved in SC+1% DMSO, and stimulated for 20 hrs. (30° C., 250 r.p.m.).

## α-factor (GenScript) (from UniProt P01149 90-102) (peptide)
[1]
  fold change of induction of yEGFP, SSC-normalized, promoter PFIG1, maximum at 100 µM α-factor: 129 fold
  fold change of induction of yEGFP, SSC-normalized, promoter PHPF1: 0.62 fold
  fold change of yEGFP, unnormalized, promoter PFIG1, 1 µM α-factor: 517 fold
  fold change of yEGFP, unnormalized, promoter PFIG1, 100 µM α-factor: 483 fold
  fold upregulation of CD19 display, promoter PFIG1, 20 hrs α-factor: 630 fold
  fold upregulation of CD19 display, promoter PFUS1, 20 hrs α-factor: 774 fold
  fold upregulation of CD19 display, promoter PTDH3: 3.1 fold
  general PRP-induced expression boost of yEGFP after 5 hrs of GPCR stimulation: 4.01 fold
  maximal fold change of CD19 display, promoters PHPF1, PTDH3 and PPGK1, lower end: 2.9 to 3.8 fold
  maximal fold change of CD19 display, promoters PHPF1, PTDH3 and PPGK1, upper end: 2.9 to 3.8 fold

## α-factor [reference compound]
[2]; across all strains, 5 hrs
  α-factor concentration at which shmooing (SSC-A) was most intense: ≥ 0.01 µM
  α-factor concentration at which shmooing generally peaked: 1 µM

B1: PFUS1: pheromone-responsive Saccharomyces cerevisiae promoter, SEQ ID NO: 8, processing module (yEGFP strain DIX24, CD19 strain DIX45) (nucleic acid, listed as Saccharomyces cerevisiae)
DNA: TAATAATCAGAACTCCAACAATAGTCAACAGGGCTATAACCAATCCTATCAAAACGGTAACCAAAATAGTCAAGGTTACAATAATCAACAGTACCAAGGTGGCAACGGTGGTTACCAACAACAACAGGGACAATCTGGTGGTGCTTTTTCCTCATTGGCCTCCATGGCTCAATCTTACTTAGGTGGTGGACAAACTCAATCCAACCAACAGCAATACAATCAACAAGGCCAAAACAACCAGCAGCAATACCAGCAACAAGGCCAAAACTATCAGCATCAACAACAGGGTCAGCAGCAGCAACAAGGCCACTCCAGTTCATTCTCAGCTTTGGCTTCCATGGCAAGTTCCTACCTGGGCAATAACTCCAATTCAAATTCGAGTTATGGGGGCCAGCAACAGGCTAATGAGTATGGTAGACCGCAACAGAATGGTCAACAGCAATCCAATGAGTACGGAAGACCGCAATACGGCGGAAACCAGAACTCCAATGGACAGCACGAATCCTTCAATTTTTCTGGCAACTTTTCTCAACAGAACAATAACGGCAACCAGAACCGCTACTGAACGATGATTCAGTTCGCCTTCTATCCTTTGTTTACGTATTTGTTTATATATATAACTTTATTTTTTTTTATTAATTGGGCTGCAAGACAATTTTGTTGTCAGTGATGCCTCAATCCTTCTTTTGCTTCCATATTTACCATGTGGACCCTTTCAAAACAGAGTTGTATCTCTGCAGGATGCCCTTTTTGACGTATTGAATGGCATAATTGCACTGTCACTTTTCGCGCTGTCTCATTTTGGTGCGATGATGAAACAAACATGAAACGTCTGTAATTTGAAACAAATAACGTAATTCTCGGGATTGGTTTTATTTAAATGACAATGTAAGAGTGGCTTTGTAAGGTATGTGTTGCTCTTAAAATATTTGGATACGACATCCTTTATCTTTTTTCCTTTAAGAGCAGGATATAAGCCATCAAGTTTCTGAAAATCAAA
[2]; PFUS1 STE12+ strain
  maximal absolute yEGFP output relative to orthogonal P6xLexOLEU2 ste12Δ0 strain: 4.2 fold
[2]; SSC-normalized promoter activity
  promoter strength relative to P6xLexOLEU2 at maximal induction: 1.4 fold
[3]; no GPCR stimulation
  CD19 level at unstimulated conditions: extremely low levels of CD19 at the limit of detection
[3]
  fold upregulation of CD19 display relative to unstimulated condition: 774±165 fold

B2: PTDH3: constitutive Saccharomyces cerevisiae promoter, SEQ ID NO: 10, processing module (DIX28, DIX49) (nucleic acid, listed as Saccharomyces cerevisiae)
DNA: CTATTTTCGAGGACCTTGTCACCTTGAGCCCAAGAGAGCCAAGATTTAAATTTTCCTATGACTTGATGCAAATTCCCAAAGCTAATAACATGCAAGACACGTACGGTCAAGAAGACATATTTGACCTCTTAACAGGTTCAGACGCGACTGCCTCATCAGTAAGACCCGTTGAAAAGAACTTACCTGAAAAAAACGAATATATACTAGCGTTGAATGTTAGCGTCAACAACAAGAAGTTTAATGACGCGGAGGCCAAGGCAAAAAGATTCCTTGATTACGTAAGGGAGTTAGAATCATTTTGAATAAAAAACACGCTTTTTCAGTTCGAGTTTATCATTATCAATACTGCCATTTCAAAGAATACGTAAATAATTAATAGTAGTGATTTTCCTAACTTTATTTAGTCAAAAAATTAGCCTTTTAATTCTGCTGTAACCCGTACATGCCCAAAATAGGGGGCGGGTTACACAGAATATATAACATCGTAGGTGTCTGGGTGAACAGTTTATTCCTGGCATCCACTAAATATAATGGAGCCCGCTTTTTAAGCTGGCATCCAGAAAAAAAAAGAATCCCAGCACCAAAATATTGTTTTCTTCACCAACCATCAGTTCATAGGTCCATTCTCTTAGCGCAACTACAGAGAACAGGGGCACAAACAGGCAAAAAACGGGCACAACCTCAATGGAGTGATGCAACCTGCCTGGAGTAAATGATGACACAAGGCAATTGACCCACGCATGTATCTATCTCATTTTCTTACACCTTCTATTACCTTCTGCTCTCTCTGATTTGGAAAAAGCTGAAAAAAAAGGTTGAAACCAGTTCCCTGAAATTATTCCCCTACTTGACTAATAAGTATATAAAGACGGTAGGTATTGATTGTAATTCTGTAAATCTATTTCTTAAACTTCTTAAATTCTACTTTTATAGTTAGTCTTTTTTTTAGTTTTAAAACACCAAGAACTTAGTTTCGAATAAACACACATAAACAAACAAA
[3]
  fold upregulation of CD19 display relative to unstimulated condition: 3.1±0.3 fold
[3]; α-factor stimulation
  change of absolute CD19 output on upregulation compared with that of PFUS1: 150.2%
